Data from the Immune Epitope Database (IEDB).

What was measured:
[1] = molecular target: HLA-A*33:01; assay: IEDB peptide-MHC binding, purified MHC/competitive/radioactivity; filed as Kd, often an IC50 or EC50 that approximates it; ≥ and ≤ were set here for values at or beyond the usual limits of such assays; conditions: source organism: SARS coronavirus Tor2
[2] = molecular target: HLA-A*11:01; assay: as above; conditions: source organism: SARS coronavirus Tor2
[3] = molecular target: HLA-A*30:02; assay: as above
[4] = molecular target: HLA-A*29:02; assay: as above
[5] = molecular target: HLA-A*03:01; assay: as above; conditions: source organism: SARS coronavirus Tor2
[6] = molecular target: HLA-A*01:01; assay: as above
[7] = molecular target: HLA-A*23:01; assay: as above
[8] = molecular target: HLA-A*31:01; assay: as above; conditions: source organism: SARS coronavirus Tor2
[9] = molecular target: HLA-A*68:01; assay: as above; conditions: source organism: SARS coronavirus Tor2
[10] = molecular target: HLA-A*24:02; assay: as above
[11] = molecular target: HLA-A*26:01; assay: as above
[12] = molecular target: HLA-A*11:01; assay: IEDB peptide-MHC binding, purified MHC/direct/fluorescence; filed as Kd, often an IC50 or EC50 that approximates it; ≥ and ≤ were set here for values at or beyond the usual limits of such assays; conditions: source organism: Salmonella enterica
[13] = molecular target: HLA-A*69:01; assay: as above; conditions: source organism: Salmonella enterica
[14] = molecular target: HLA-B*27:05; assay: as above; conditions: source organism: Salmonella enterica
[15] = molecular target: HLA-A*24:03; assay: as above
[16] = molecular target: HLA-B*07:02; assay: as above; conditions: source organism: Salmonella enterica subsp. enterica serovar Typhi
[17] = molecular target: HLA-B*08:01; assay: as above; conditions: source organism: Salmonella enterica
[18] = molecular target: HLA-B*44:02; assay: as above; conditions: source organism: Salmonella enterica
[19] = molecular target: HLA-B*15:01; assay: as above; conditions: source organism: Salmonella enterica
[20] = molecular target: HLA-A*03:01; assay: as above; conditions: source organism: Salmonella enterica
[21] = molecular target: HLA-B*40:01; assay: as above; conditions: source organism: Salmonella enterica
[22] = molecular target: HLA-A*01:01; assay: as above; conditions: source organism: Salmonella enterica
[23] = molecular target: HLA-A*31:01; assay: as above; conditions: source organism: Salmonella enterica
[24] = molecular target: HLA-A*02:01; assay: as above; conditions: source organism: Salmonella enterica
[25] = molecular target: HLA-A*26:01; assay: as above; conditions: source organism: Salmonella enterica
[26] = molecular target: HLA-B*58:01; assay: as above; conditions: source organism: Salmonella enterica
[27] = molecular target: HLA-B*08:01; assay: IEDB peptide-MHC binding, purified MHC/competitive/radioactivity; filed as Kd, often an IC50 or EC50 that approximates it; ≥ and ≤ were set here for values at or beyond the usual limits of such assays
[28] = molecular target: HLA-B*07:02; assay: as above
[29] = molecular target: HLA-A*02:01; assay: IEDB peptide-MHC binding, purified MHC/competitive/fluorescence; filed as Kd, often an IC50 or EC50 that approximates it; ≥ and ≤ were set here for values at or beyond the usual limits of such assays; conditions: source organism: Variola virus
[30] = molecular target: HLA-B*15:01; assay: IEDB peptide-MHC binding, purified MHC/competitive/radioactivity; filed as Kd, often an IC50 or EC50 that approximates it; ≥ and ≤ were set here for values at or beyond the usual limits of such assays; conditions: source organism: Vaccinia virus WR
[31] = molecular target: HLA-A*02:02; assay: as above; conditions: source organism: Vaccinia virus WR
[32] = molecular target: HLA-A*02:03; assay: as above; conditions: source organism: Vaccinia virus WR
[33] = molecular target: HLA-A*02:06; assay: as above; conditions: source organism: Vaccinia virus WR
[34] = source organism: SARS coronavirus Tor2
[35] = source organism: Dengue virus 2 Jamaica/1409/1983
[36] = source organism: Vaccinia virus Copenhagen
[37] = source organism: Dengue virus 3 Martinique/1243/1999
[38] = source organism: Vaccinia virus WR
[39] = source organism: Mammarenavirus guanaritoense
[40] = source organism: Dengue virus 4 Philippines/H241/1956

Which Kd [1] does the source give for NTCDGNTFTY here?
The Kd was 13.2 µM.

And the Kd [2]?
The Kd was 0.0236 µM.

What about the Kd [3, 34] of the same sequence?
Its Kd is no less than 125 µM.

What about the Kd [4, 34] of the same sequence?
Its Kd is no less than 26 µM.

What about the Kd [5] of the same sequence?
Its Kd is 0.00225 µM.

And the Kd [6, 34]?
The Kd was no less than 89.3 µM.

What about the Kd [7, 34] of the same sequence?
The Kd was 5.34 µM.

And the Kd [8]?
Its Kd is 0.0334 µM.

What about the Kd [9] of the same sequence?
Its Kd is 1.06 µM.

What about the Kd [10, 34] of the same sequence?
The Kd was 5.75 µM.

What about the Kd [11, 34] of the same sequence?
The Kd was no less than 77.9 µM.

What does the source list for RPQLGVGDV?
Kd [12]: ≥ 20 µM; Kd [13]: ≥ 20 µM; Kd [14]: ≥ 20 µM; Kd ([15]; source organism: Salmonella enterica subsp. enterica serovar Typhi): 6.18 µM; Kd [16]: 0.38 µM; Kd [17]: ≥ 20 µM; Kd [18]: ≥ 20 µM; Kd [19]: ≥ 20 µM; Kd [20]: ≥ 20 µM; Kd [21]: ≥ 20 µM; Kd [22]: ≥ 20 µM; Kd [23]: ≥ 20 µM; Kd [24]: ≥ 20 µM; Kd [25]: ≥ 20 µM; Kd [26]: ≥ 20 µM

How did the Kd [27, 35] turn out when MLKRERNRV was run?
The Kd was 0.0529 µM.

With ILMDSIFVST as the sequence, how does the Kd [28, 36] read?
The Kd was no less than 69.6 µM.

Which Kd [27, 35] does the source give for ILCVPNAVIL here?
Its Kd is 5.54 µM.

With SLLFKTASG as the sequence, how does the Kd [27, 37] read?
The Kd was 0.534 µM.

For ERLQRKHGGM, which Kd [27, 37] is on record?
The Kd was 0.0922 µM.

Which Kd [29] does the source give for SMHFYGWSL here?
Its Kd is 0.303 µM.

What about the Kd [27, 38] of the same sequence?
The Kd was 0.00285 µM.

And the Kd [30]?
Its Kd is 0.063 µM.

Which results are given for NLRCHSAHV?
Kd [31]: 0.384 µM; Kd [27, 38]: 0.00124 µM; Kd [32]: 0.011 µM; Kd [33]: 8.03 µM

YYFMKFRRVF was tested. Which Kd [3, 34] did it give?
Its Kd is no less than 22.2 µM.

And the Kd [4, 34]?
Its Kd is 0.0028 µM.

What about the Kd [6, 34] of the same sequence?
Its Kd is 3.18 µM.

What about the Kd [7, 34] of the same sequence?
The Kd was 0.00151 µM.

What about the Kd [10, 34] of the same sequence?
The Kd was 0.00392 µM.

And the Kd [11, 34]?
The Kd was 1.75 µM.

Which results are given for IYNEKVAGF?
Kd [3, 34]: ≥ 22.7 µM; Kd [4, 34]: 19.8 µM; Kd [6, 34]: ≥ 78.1 µM; Kd [7, 34]: 19.7 µM; Kd [10, 34]: ≥ 26.6 µM; Kd [11, 34]: 3.55 µM

What does the source list for VFQPSTGNYV?
Kd [3, 39]: 1.01 µM; Kd [4, 39]: ≥ 31.6 µM; Kd [6, 39]: ≥ 70.4 µM; Kd [7, 39]: 5.66 µM; Kd [10, 39]: 1.53 µM; Kd [11, 39]: ≥ 69.7 µM

With LVMKDGRVL as the sequence, how does the Kd [28, 35] read?
Its Kd is 0.00107 µM.

TFHLSIPNF was tested. Which Kd ([15]; source organism: Mammarenavirus lassaense) did it give?
Its Kd is 0.0345 µM.

HAQRIETWIL was tested. Which Kd ([27]; source organism: Dengue virus 2 Peru/IQT2913/1996) did it give?
Its Kd is 1.15 µM.

Which Kd [27, 40] does the source give for RKLTSRETAL here?
Its Kd is 0.178 µM.

What does the source list for LFCLLNRYF?
Kd [3, 34]: ≥ 81.1 µM; Kd [4, 34]: ≥ 40.4 µM; Kd [6, 34]: 3.44 µM; Kd [7, 34]: ≥ 70 µM; Kd [10, 34]: ≥ 77.6 µM; Kd [11, 34]: 1.14 µM

For QLAKRFSRG, which Kd ([27]; source organism: Dengue virus 3 Singapore/8120/1995) is on record?
Its Kd is 1.28 µM.

FNKGHFTRL was tested. Which Kd [27, 36] did it give?
The Kd was 0.0163 µM.

For IKTTAKEVAL, which Kd [27, 40] is on record?
Its Kd is 4.46 µM.
